Data from publication PMC6547859 (The Journal of Experimental Medicine, 2019).

Target: the molecule itself
Test: SEC

B1: FLAG-tagged Regnase-1, full-length, phosphorylated (Expi293F, coexpressed with Myc-Act1 and HA-TBK1 or HA-IKKi) (natural protein, UniProt Q5D1E7 1-596, looked up)
chain: MSDPCGTKPVQESNPTMSLWSLEDRHSSQGRPQPDQDPVAKEAPTSELQMKVDFFRKLGYSSSEIHSVLQKLGVQADTNTVLGELVKHGSATERECQALTAPSPQPPLVPRGGSTPKPSTLEPSLPEEDREGSDLRPVVIDGSNVAMSHGNKEVFSCRGILLAVNWFLERGHTDITVFVPSWRKEQPRPDVPITDQHILRELEKKKILVFTPSRRVGGKRVVCYDDRFIVKLAFESDGVVVSNDTYRDLQGERQEWKRFIEERLLMYSFVNDKFMPPDDPLGRHGPSLDNFLRKKPLPSEHRKQPCPYGKKCTYGIKCRFFHPERPSRPQRSVADELRANALLSPPRTPVKDKSSQRPSPASQSSSVSLEAEPGSLDGKKLGARSSPGPHREGSPQTCAPAGRSLPVSGGSFGPTEWLAHTQDSLPYTSQECLDSGIGSLESQMSELWGVRGGSPGESGPTRGPYAGYHSYGSKVPAAPSFSPFRPAMGAGHFSVPTDYVPPPPTYPSREYWSEPYPLPPPTPVLQEPQRPSPGAGGGPWGRVGDLAKERAGVYTKLCGVFPPHLVEAVMRRFPQLLDPQQLAAEILSYKSQHLSE
modifications: phosphorylated by coexpression with Act1 and TBK1 or IKKi; phosphorylation sites identified: Ser439, Ser494, Thr505, Ser508, Ser513
With B1 the “stoichiometry N” value was 3.
